# From patent publication US20160031958
# T1: FLAG-REST (810-910)-GFP reporter peptide, unmutated
# T1 chain: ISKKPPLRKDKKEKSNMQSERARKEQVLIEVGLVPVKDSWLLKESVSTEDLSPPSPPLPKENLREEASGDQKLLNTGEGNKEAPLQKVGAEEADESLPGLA
# T2: FLAG-REST (unmutated, full-length), Q13127
# T2 chain: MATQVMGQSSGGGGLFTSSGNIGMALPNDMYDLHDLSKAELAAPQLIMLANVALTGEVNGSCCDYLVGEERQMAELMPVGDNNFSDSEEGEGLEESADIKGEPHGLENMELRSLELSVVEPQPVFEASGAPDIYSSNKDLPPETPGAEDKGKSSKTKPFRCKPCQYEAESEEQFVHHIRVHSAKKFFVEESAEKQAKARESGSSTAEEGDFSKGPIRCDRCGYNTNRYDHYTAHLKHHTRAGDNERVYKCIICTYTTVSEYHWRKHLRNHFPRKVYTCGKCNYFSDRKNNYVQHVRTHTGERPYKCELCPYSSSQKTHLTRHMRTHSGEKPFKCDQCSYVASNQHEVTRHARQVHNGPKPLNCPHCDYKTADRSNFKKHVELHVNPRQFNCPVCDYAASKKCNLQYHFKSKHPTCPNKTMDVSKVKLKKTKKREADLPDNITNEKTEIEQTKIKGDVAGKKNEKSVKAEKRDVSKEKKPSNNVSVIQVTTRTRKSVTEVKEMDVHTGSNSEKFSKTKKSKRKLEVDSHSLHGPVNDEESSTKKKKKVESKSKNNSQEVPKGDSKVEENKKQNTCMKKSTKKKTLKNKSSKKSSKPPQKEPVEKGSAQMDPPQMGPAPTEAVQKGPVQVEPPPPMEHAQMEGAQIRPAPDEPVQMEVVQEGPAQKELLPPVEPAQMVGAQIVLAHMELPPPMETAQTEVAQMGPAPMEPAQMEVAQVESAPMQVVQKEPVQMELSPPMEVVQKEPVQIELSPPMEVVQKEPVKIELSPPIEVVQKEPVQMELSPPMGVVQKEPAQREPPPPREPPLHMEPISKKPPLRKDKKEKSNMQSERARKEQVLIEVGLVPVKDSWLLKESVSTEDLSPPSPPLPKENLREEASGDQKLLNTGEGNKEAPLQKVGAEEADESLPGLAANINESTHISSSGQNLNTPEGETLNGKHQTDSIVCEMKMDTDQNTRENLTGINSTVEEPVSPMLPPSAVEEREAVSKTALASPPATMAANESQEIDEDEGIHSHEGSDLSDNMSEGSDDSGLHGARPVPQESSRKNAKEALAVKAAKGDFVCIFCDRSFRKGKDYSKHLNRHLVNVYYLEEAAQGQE
# B1: FLAG-CTDSP1 (protein)
# chain: MDSSAVITQISKEEARGPLRGKGDQKSAASQKPRSRGILHSLFCCVCRDDGEALPAHSGAPLLVEENGAIPKQTPVQYLLPEAKAQDSDKICVVIDLDETLVHSSFKPVNNADFIIPVEIDGVVHQVYVLKRPHVDEFLQRMGELFECVLFTASLAKYADPVADLLDKWGAFRARLFRESCVFHRGNYVKDLSRLGRDLRRVLILDNSPASYVFHPDNAVPVASWFDNMSDTELHDLLPFFEQLSRVDDVYSVLRQPRPGS
# Assays:
# [1] = biological target: T1, FLAG-REST (810-910)-GFP reporter …
# [2] = biological target: T2, FLAG-REST (unmutated, full-length), …
protein,measurement,setting,value
B1,in-gel GFP fluorescence on native gel (mobility shift),[1],Dephosphorylation by CTDSP1 was also observed in the REST reporter peptides
same,Western blot with REST phospho-specific polyclonal antibody,[2],exogenously expressed FLAG-CTDSP1 dephosphorylated these sites in full-length REST
